Data taken from patent US20040265808A1, “Genes involved in osteogenesis, and methods of use” (priority 2001, published 2004).

B1: 55 (nucleic acid, listed as Mus musculus)
chain: CGATCGATATGTCTTCAGGAAATGCAAAAATTGGGTATCCTGCTCCCAACTTCAAAGCTACAGCTGTTATGCCAGATGGACAATTCAAAGATATCAGCCTAAGTGAATACAAAGGAAAATATGTTGTGTTCTTCTTTTACCCTCTTGACTTTACTTTTGTGTGTCCCACGGAGATCATTGCTTTCAGTGATAGAGCCGATGAATTTAAGAAACTCAACTGCCAAGTGATTGGCGCTTCTGTGGATTCTCACTTCTGTCATCTGGCATGGATTAACACACCCAAGAAACAAGGAGGATTGGGACCCATGAACATTCCCTTAATATCAGATCCCAAGCGCACCATTGCTCAGGATTATGGAGTCTTAAAGGCTGATGAAGGTATCTCTTTCAGGGGCCTTTTTATTATTGATGATAAAGGTATCCTTCGACAGATAACAATAAACGATCTTCCCGTTGGCCGCTCTGTGGATGAGATTATACGACTAGTCCAGGCCTTCCAGTTCACTGACAAACATGGTGAAGTGTGTCCAGCTGGCTGGAAACCTGGCAGTGATACCATCAAGCCTGATGTCAATAAGAGCAAAGAGTATTTCTCTAAGCAGAAGGCGGCCGCTT
B2: 42 (nucleic acid, listed as Mus musculus)
chain: CGATCGATATGGCAGACACGTTTTCGCTTAACGATGCCTTAGCTGGCTCTGGAAACCCAAACCCTCAAGGATATCCGGGTGCATGGGGGAACCAGCCTGGGGCAGGGGGCTACCCAGGGGCTGCCTATCCTGGGGCCTATCCAGGACAGGCTCCTCCAGGGGCCTACCCAGGACAGGCTCCTCCAGGGGCCTATCCAGGACAGGCTCCTCCTAGTGCCTACCCCGGCCCAACTGCCCCTGGAGCTTATCCTGGCCCAACTGCCCCTGGAGCTTATCCTGGCTCAACTGCCCCTGGAGCCTTCCCAGGGCAACCTGGGGCACCTGGGGCCTACCCCAGTGCTCCTGGAGGCTATCCTGCTGCTGGCCCTTATGGTGTCCCCGCTGGACCACTGACGGTGCCCTATGACCTGCCCTTGCCTGGAGGAGTCATGCCCCGCATGCTGATCACAATCATGGGCACAGTGAAACCCAACGCAAACAGGATTGTTCTAGATTTCAGGAGAGGGAATGATGTTGCCTTCCACTTTAACCCCCGCTTCAATGAGAACAACAGAAGAGTCATTGTGTGTAACACGAAGCAGGACAATAACTGGGGAAAGGAAGAAAGACAGTCAGCCTTCCCCTTTGAGAGTGGAAAACCATTCAAAATACAAGTCCTGGTTGAAGCTGACCACTTCAAGGTTGCGGTCAACGATGCTCACCTACTGCAGTACAACCATCGGATGAAGAACCTCCGGGAAATCAGCCAACTGGGGATCAGTGGTGACATAACCCTCACCAGCGCTAACCACGCCATGATCGCGGCCGCTT
B3: 11 (nucleic acid, listed as Mus musculus)
chain: AATCTAGAATGCAGTGGGCCTCCGTCCTGCTGCTGGCTGGGCTCTGCTCACTTTCCCAGGGCCAGTATGATGAAGACTCTCACTGGTGGATCCAATACCTCCGAAACCAGCAGTCCACCTACTACGACCCCTATGACCCTTACCCCTATGAGCCCTCTGAGCCTTACCCCTATGGAGTGGAAGAAGGCCCAGCCTATGCCTATGGTGCACCACCTCCACCAGAGCCCCGTGATTGTCCCCAAGAATGCGACTGTCCCCCCAACTTCCCCACAGCCATGTACTGTGACAACCGCAACCTCAAGTACCTGCCTTTTGTGCCCTCCCGCATGAAGTACGTCTACTTCCAGAACAACCAGATCTCTGCCATCCAGGAAGGTGTCTTTGACAATGCCACTGGGCTCCTCTGGGTCGCTCTACATGGCAACCAGATTACCAGTGACAAGGTAGGCAGGAAAGTCTTCTCCAAGCTGAGGCACTTGGAGAGGCTGTACTTGGACCACAACAACCTGACCCGGATGCCCGGCCCGCTGCCCCGATCCCTGAGAGAGCTCCACCTGGACCACAACCAGATCTCACGGGTCCCCAACAATGCTTTGGAGGGCCTGGAGAACCTCACGGCCTTATATCTCCACCACAATGAGATCCAGGAAGTGGGGAGTTCCATGAGAGGCCTCCGGTCCCTGATCCTACTAGACCTGAGTTATAACCACCTTCGGAGGGTACCCGACGGTCTGCCCTCAGCCCTGGAGCAGCTGTACCTAGAACACAACAATGTCTACACCGTCCCTGACAGCTACTTCCGGGGGTCACCCAAGCTGCTGTACGTCCGGTTGTCTCACAACAGTCTCACTAACAACGGCCTTGCTACCAACACCTTCAACTCCAGCAGCCTTCTTGAGCTAGACTTGTCTTACAATCAGCTGCAGAAGATCCCTCCTGTCAACACCAACCTGGAGAATCTTTACCTCCAGGGCAACAGGATCAATGAGTTCTCCATCAGCAGCTTCTGCACGGTGGTGGACGTCATGAACTTCTCCAAGCTGCAGGTGCTACGCCTGGATGGGAACGAGATCAAGCGCAGCGCAATGCCGGTGGACGCCCCACTCTGCCTGCGCCTCGCCAACCTCATCGAGATCACTAGTAA
B4: 63 (nucleic acid, listed as Mus musculus)
chain: CGGAATTCGCCATGTCAACAGCAGGAGTTGCTGCTCAGGATATTCGAGTCCCATTAAAAACTGGATTTCTCCATAATGGTCAGGCCTTGGGGAATATGAAGTCCTGCTGGGGCAGTCACAGTGAGTTTGAAAATAACTTTTTAAATATTGATCCAATAACCATGGCCTACAATCTGAACTCCCCTGCTCAGGAGCACCTAACAACTGTTGGATGTGCTGCTCGGTCTGCTCCAGGGAGCGGCCACTTCTTTGCAGAGTGTGGTCCATCTCCAAGGTCAAGCTTGCCCCCTCTTGTTATCTCACCAAGTGAAAGCTCGGGACAGCGTGAAGAGGATCAAGTTATGTGTGGTTTTAAGAAACTCTCAGTGAATGGGGTCTGCACTTCCACACCTCCACTTACACCCATTAAAAGCTGCCCTTCCCCTTTCCCCTGTGCGGCTCTGTGTGATCGGGGTTCTCGGCCGCTCCCGCCACTGCCCATCTCTGAAGACCTATGTGTGGATGAGGCCGACAGTGAGGTAGAGCTTCTAACCACCAGCTCAGACACAGACTTGCTTTTAGAAGACTCTGCGCCTTCAGATTTCAAATACGATGCTCCTGGCAGGCGCAGCTTCCGTGGGTGCGGCCAGATCAACTATGCATATTTTGACAGCCCAACTGTTTCTGTGGCAGATCTTAGCTGTGCATCTGACCAGAACAGAGTTGTTCCAGACCCAAACCCTCCCCCACCTCAAAGCCATCGCAGATTAAGGAGGTCTCACTCAGGACCAGCTGGGTCATTTAACAAGCCAGCCATTCGGATATCTAGCTGCACACACAGAGCTTCTCCTAGCTCTGATGAAGACAAGCCTGAGGTCCCTCCCAGGGTTCCTATACCTCCTAGGCCAGCAAAGCCAGACTATAGACGGTGGTCAGCAGAAGTGACCTCCAACACCTACAGTGATGAAGATAGGCCTCCCAAAGTCCCCCCGAGAGAACCTTTGTCTCGGAGTAACTCCCGTACCCCAAGTCCTAAAAGCCTTCCGTCTTACCTCAATGGGGTCATGCCCCCAACACAGAGCTTCGCTCCTGACCCCAAGTATGTCAGCAGCAAAGCCCTGCAGAGACAGAGCAGCGAAGGATCTGCCAACAAGGTTCCTTGCATCCTGCCCATTATTGAAAATGGGAAGAAGGTTAGCTCAACGCATTATTACTTACTACCTGAGAGGCCACCGTACCTGGACAAATATGAAAAGTATTTTAAGGAAGCAGAAGAAACAAACCCAAGCACCCAAATTCAGCCATTACCTGCTGCCTGTGGTATGGCCTCTGCCACAGAAAAGCTGGCCTCCAGAATGAAAATAGATATGGGTAGCCACGGGAAGCGCAAACACTTATCCTACGTGGTTTCTCCAGCGGCCGCTT

Tested on: C2C12 cells
Experiment: Transient over-expression of candidate genes, cooperation with BMP2 by measurement of alkaline phosphatase
Type: cell-based, mouse
Set-up: key: +: positive or negative cooperation with BMP2; −: positive or negative cooperation with BMP2
Conditions: not given
Method: (§1) Mouse cell lines representing different stages of osteoblastic differentiation, C2C12, C2H10T1/2, ST2 and MC3T3-E1, were grown in the presence of agents capable of the induction of osteoblastic differentiation in vitro such as BMP2 and Sonic Hedgehog or in the presence of TGF beta (negative control) or with serum alone. Primary cells derived from mouse calvaria were also cultured for 0, 2, 7 14 and 21 days and RNA prepared for each time point. For example, C3H10T ½ and C2C12 can be obtained from the ATCC (Manassas, Va., USA) under the collection numbers CCL-226 and CRL-1772, respectively.
(§2) The candidates genes are cloned in expression vectors and their ability to express a protein of the expected size verified by COS cells transient transfection. The genes are then transfected in C3H10T1/2 cells and/or C2C12 cells (transient over-expression) and positive or negative cooperation with BMP2 is evaluated by the measurement of alkaline phosphatase (enzymatic assay and TaqMan) at 48 hours. Controls of positive cooperation, recombinant Sonic Hedgehog, or negative cooperation, recombinant Noggin, are included in each test.

Row | Molecule | Validation in vitro (coop over BMP2) C2C12
1 | B1 | −
2 | B2 | −
3 | B3 | −
4 | B4 | −

Tested on: C3H10T1/2 cells
Experiment: as above
Type: cell-based, mouse
Set-up: key: +: positive or negative cooperation with BMP2; −: positive or negative cooperation with BMP2
Conditions: alkaline phosphatase
Method: as §1, §2

Row | Molecule | Validation in vitro (coop over BMP2) C3H10T1/2
5 | B1 | −
6 | B2 | −
7 | B3 | −
8 | B4 | −

Same assay, conditions: alkaline phosphatase at 48 hours

Row | Molecule | Validation in C2H10T1/2 (coop over BMP2)
9 | B3 | − coop over BMP2
